From patent US20020081623A1

Target: RANTES/eotaxin binding sites on guinea-pig eosinophils (guinea-pig)
Experiment: binding of 0.1 nM 125I-RANTES to 4x10^5 guinea-pig eosinophils without competitor

B0: 14.4%
Substance: human RANTES (from UniProt P13501 24-91) (ligand)
